Test [1] has as its target wild-type (polymerization-competent) yeast αβ-tubulin (yeast) (UniProt P09733). The experiment in a line: AUC; sedimentation velocity; seven concentrations of TOG1 or TOG2 (44 nM-4.5 μM) titrated into 0.35 μM αβ-tubulin; 1:1 binding isotherm fitted; RB100 with 20 μM GTP, 20°C.
Test [2] shares this target. The experiment in a line: AUC; sedimentation velocity; TOG1-TOG2 or its mutants mixed with αβ-tubulin (∼5 molar equivalents of αβ-tubulin; seven concentrations of TOG1-TOG2 with 0.3 μM αβ-tubulin); two-site binding model; RB100 with 20 μM GTP, 20°C.

As usually defined, the Kd is a measure of binding affinity in units of concentration. One may read the stoichiometry N as the number of molecules, sites or subunits per partner or assembly.

In test [1], “TOG1 domain from Stu2p, TOG1(1-317) (from UniProt P46675 1-317) (domain or fragment)” displayed a Kd of 70 nM and a stoichiometry N of 1.

With “TOG1-TOG2 of Stu2p with the mutation R519A (from UniProt P46675 1-560) (domain or fragment)”, the stoichiometry N (αβ-tubulin per TOG1-TOG2) in test [2] was determined as 1. Take “TOG1-TOG2 of Stu2p with the mutation printed as W314A (from UniProt P46675 1-560) (domain or fragment)”: the stoichiometry N (αβ-tubulin per TOG1-TOG2) in test [2] worked out at 1.

Consider “TOG1-TOG2(1-560) of Stu2p (from UniProt P46675 1-560) (domain or fragment)”, for which the stoichiometry N (αβ-tubulins per TOG1-TOG2) in test [2] was 2.
